One may read the Km as the concentration of substrate that gives half-maximal velocity. In general, kcat refers to the maximal rate divided by the concentration of active sites. As usually defined, the kcat/Km is the second-order rate constant that governs catalysis at low substrate concentration.

Two substances from paper PMC10846113, “fosA11, a novel chromosomal-encoded fosfomycin resistance gene identified in Providencia rettgeri” (Microbiology Spectrum, 2023) can be followed below.

Data set [1] deals with C[C@@H]1O[C@@H]1P(=O)(O)O. The data set is described as follows: glutathione consumption, monochlorobimane fluorescence, Michaelis-Menten fit. The data set is classed as biochemical, Escherichia coli. The note with it: 30 mM glutathione, 0.05 mM MnCl2, 0.1 M HEPES pH 8.0, 25 °C. The source says:
glutathione consumption, monochlorobimane fluorescence, Michaelis-Menten fit on FosA3

Data set [2] deals with C[C@@H]1O[C@@H]1P(=O)(O)O. Described as above. The data set is classed as biochemical, Providencia rettgeri. The note with it: 30 mM glutathione, 0.05 mM MnCl2, 0.1 M HEPES pH 8.0, 25 °C. From the text: glutathione consumption, monochlorobimane fluorescence, Michaelis-Menten fit on FosA11

For FosA3 (Escherichia coli), in data set [1], the Km was 12 ± 2 mM, the kcat worked out at 112 ± 5.3 s⁻¹ and the kcat/Km is 9000 ± 1000 M⁻¹ s⁻¹.
FosA11 (Providencia rettgeri): in data set [2], the Km turned out to be 18 ± 4 mM, the kcat came to 56.1 ± 3.2 s⁻¹ and the kcat/Km came out at 2900 ± 500 M⁻¹ s⁻¹.
